Experimental data taken from patent publication US20230038638A1, “COMPLEMENT FACTOR I-RELATED COMPOSITIONS AND METHODS” (published 2023).

Tests used:
[1] = target: soluble human C3b (human) (UniProt P01024)
human C4b (human) = target: T1, human C4b (human) (UniProt P0C0L4)
T1 sequence: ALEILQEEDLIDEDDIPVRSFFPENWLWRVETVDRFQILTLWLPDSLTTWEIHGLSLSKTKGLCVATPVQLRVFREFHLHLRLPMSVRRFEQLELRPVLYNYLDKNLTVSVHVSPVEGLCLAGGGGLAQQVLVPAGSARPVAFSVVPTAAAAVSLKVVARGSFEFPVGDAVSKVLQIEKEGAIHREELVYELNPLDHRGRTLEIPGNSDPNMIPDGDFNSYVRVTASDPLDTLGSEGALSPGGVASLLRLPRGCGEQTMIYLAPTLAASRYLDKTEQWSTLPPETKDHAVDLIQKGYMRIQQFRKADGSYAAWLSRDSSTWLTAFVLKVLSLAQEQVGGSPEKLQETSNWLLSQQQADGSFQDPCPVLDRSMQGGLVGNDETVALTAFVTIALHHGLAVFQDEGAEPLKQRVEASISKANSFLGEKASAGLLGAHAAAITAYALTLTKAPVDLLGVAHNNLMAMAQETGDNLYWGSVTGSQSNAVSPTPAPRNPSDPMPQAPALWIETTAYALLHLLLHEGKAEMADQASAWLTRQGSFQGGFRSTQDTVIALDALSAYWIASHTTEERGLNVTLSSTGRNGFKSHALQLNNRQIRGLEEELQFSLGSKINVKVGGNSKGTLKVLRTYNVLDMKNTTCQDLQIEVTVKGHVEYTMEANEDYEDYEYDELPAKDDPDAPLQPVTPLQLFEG

iC3b Screen Ref Fold (fold of CFI-HSA wild type) [1] | C4b Screen Ref Fold (fold of CFI-HSA wild type) (human C4b (human)) | iC3b Screen Ref Fold (fold of reference) [1] | C4b Screen Ref Fold (fold of reference) (human C4b (human)) | Substance
 |  | 0.67 | 1.81 | CFI-HSA variant T346H (enzyme)
-0.03 | 0.08 |  |  | CFI-HSA variant W375G (enzyme)
0.01 | 0.09 |  |  | CFI-HSA F464I (enzyme)
 |  | 1.24 | 0.63 | CFI-HSA variant P558S; F559L; I560V; Y563H (enzyme)
0.09 | 0.16 |  |  | CFI-HSA variant D425K; E530F; F537K; K504R; P558S (enzyme)
-0.01 | 0.12 |  |  | CFI-HSA Y408L; S507A; N531G (enzyme)
1.54 | 6.74 |  |  | CFI-HSA E457G; E461Q; R462K (enzyme)
 |  | -0.03 | -0.05 | CFI-HSA variant W381A; P384A (enzyme)
1.29 | 6.12 |  |  | CFI-HSA Y408L; N531G; E457G; R462K (enzyme)
 |  | 0.56 | 0.74 | CFI-HSA variant G344R (enzyme)
0 | 0.25 |  |  | CFI-HSA variant R462G (enzyme)
1.76 | 6.83 |  |  | CFI-HSA N531G; E461Q; F464Y (enzyme)
1.59 | 0.89 |  |  | CFI-HSA D425W (enzyme)
1.75 | 1.79 |  |  | CFI-HSA D425H (enzyme)
-0.01 | 0.15 |  |  | CFI-HSA F464P (enzyme)
1.39 | 0.56 |  |  | CFI-HSA variant N52Q; N159Q (enzyme)

iC3b Screen Ref Fold (fold of CFI-HSA wild type) [1] | C4b Screen Ref Fold (fold of CFI-HSA wild type) (human C4b (human)) | iC3b Screen Ref Fold (fold of reference) [1] | C4b Screen Ref Fold (fold of reference) (human C4b (human)) | Substance
 |  | 0.96 | 0.19 | CFI-HSA variant E530K (enzyme)
 |  | 0 | 0.59 | CFI-HSA fusion WT; GGSSGG (SEQ ID NO: 6); fH(ccp1); CR1(ccp16); fH(ccp3); fH(ccp4) (from UniProt P17927) (enzyme)
 |  | -0.01 | 0.04 | CFI-HSA variant W381G; V390G (enzyme)
0.01 | 0.05 |  |  | CFI-HSA D506M (enzyme)
0.89 | 5.5 |  |  | CFI-HSA Y408L; E457G; R462K; F464Y (enzyme)
 |  | 0.95 | 0.54 | CFI-HSA variant T346R (enzyme)
-0.02 | 0.18 |  |  | CFI-HSA variant K504R; S507A (enzyme)
1.26 | 0.07 |  |  | CFI-HSA variant Y408M; F537K; K504R; P558S (enzyme)
0.98 | 2.51 |  |  | CFI-HSA D425V (enzyme)
0.36 | 3.18 |  |  | CFI-HSA variant R557A; N531M; Y403F; K504Y; E457N; E461Q (enzyme)
 |  | -0.01 | 0.09 | CFI-HSA variant W381A (enzyme)
 |  | 0.06 | 0.11 | CFI-HSA variant A405S; G406A; Y408L; Q409D (enzyme)
 |  | 0.93 | 1.2 | CFI-HSA variant G344K; Y408L; N531G (enzyme)
1.31 | 1.14 |  |  | CFI-HSA K534A (enzyme)
1.54 | 2.94 |  |  | CFI-HSA L307S (enzyme)
0.36 | 3.2 |  |  | CFI-HSA variant R557A; N531M; Y403F; K504Y; E457N; E461V (enzyme)

Second part, the substance before the results:

Substance | iC3b Screen Ref Fold (fold of CFI-HSA wild type) [1] | C4b Screen Ref Fold (fold of CFI-HSA wild type) (human C4b (human)) | iC3b Screen Ref Fold (fold of reference) [1] | C4b Screen Ref Fold (fold of reference) (human C4b (human))
CFI-HSA variant D425K; Y408M; E530F; F537K (enzyme) | 0.07 | 0.03 |  | 
CFI-HSA variant D425K; E457G; E461Q; N531G; P558S (enzyme) | 1.98 | 3.25 |  | 
CFI-HSA variant Y403F; D425K; E457G; N531G (enzyme) | 0.22 | 3.85 |  | 
CFI-HSA variant F537K; S507A (enzyme) | -0.04 | -0.09 |  | 
CFI-HSA F246Y (enzyme) | 1.56 | 0.48 |  | 
CFI-HSA T407G; N531G (enzyme) | 0.85 | 0.83 |  | 
CFI-HSA N531G; P535A; S507A (enzyme) | -0.02 | 0.26 |  | 
CFI-HSA variant Q409Y (enzyme) |  |  | -0.01 | 0.29
CFI-HSA K534I (enzyme) | 0.83 | 3.03 |  | 
CFI-HSA variant F537K; K504R (enzyme) | 1.06 | 0.11 |  | 
CFI-HSA variant F559L (enzyme) |  |  | 1.54 | 0.73
CFI-HSA variant K504R; P558S (enzyme) | 1.19 | 0.17 |  | 
CFI-HSA D425Y (enzyme) | 1.15 | 2.87 |  | 
CFI-HSA variant G344Y (enzyme) |  |  | 0.43 | 1.93
CFI-HSA variant I382G (enzyme) | -0.03 | 0.33 |  | 
CFI-HSA P535R (enzyme) | 0.77 | 1.24 |  | 
CFI-HSA variant Y408F; S507A (enzyme) | -0.02 | 0.07 |  | 
CFI-HSA variant G406A; Y408L (enzyme) |  |  | 0.75 | 0.68
CFI-HSA variant T346K; K504D; E530K (enzyme) |  |  | 0.4 | -0.02
CFI-HSA variant T377G; N422K; D425K; E457G; E461Q; E530F; N531G (enzyme) | 0.87 | 3.74 |  | 
CFI-HSA T407G (enzyme) | 0.59 | 0.11 |  | 
